From patent US20230035659A1, “Compositions and Methods for TTR Gene Editing and Treating ATTR Amyloidosis Comprising a Corticosteroid or Use Thereof” (Intellia Therapeutics, Inc., priority 2019, published 2023)
Strand notation (5' to 3'): a small letter for the sugar, then the base; units joined by * are phosphorothioate-linked, units joined directly phosphodiester-linked; [ ] holds rarer units or linkages, { } end groups; capitals alone tell only the bases. m = 2'-O-methyl; r = 2'-OH (RNA)

B1: G000490: TTR sgRNA modified sequence, Human, SEQ ID NO: 97; guide sequence of CR003366 (nucleic acid)
guide: mA*mA*mA*rUrArGrArCrArCrCrArArArUrCrUrUrArCrGrUrUrUrUrArGrAmGmCmUmAmGmAmAmAmUmAmGmCrArArGrUrUrArArArArUrArArGrGrCrUrArGrUrCrCrGrUrUrArUrCrAmAmCmUmUmGmAmAmAmAmAmGmUmGmGmCmAmCmCmGmAmGmUmCmGmGmUmGmCmU*mU*mU*mU
B2: G000567: TTR sgRNA modified sequence, Human, SEQ ID NO: 109; guide sequence of CR003352 (nucleic acid)
guide: mG*mA*mA*rArGrGrCrUrGrCrUrGrArUrGrArCrArCrCrGrUrUrUrUrArGrAmGmCmUmAmGmAmAmAmUmAmGmCrArArGrUrUrArArArArUrArArGrGrCrUrArGrUrCrCrGrUrUrArUrCrAmAmCmUmUmGmAmAmAmAmAmGmUmGmGmCmAmCmCmGmAmGmUmCmGmGmUmGmCmU*mU*mU*mU
B3: G000481: TTR sgRNA modified sequence, Human, SEQ ID NO: 88; guide sequence of CR003345 (nucleic acid)
guide: UCUAGAACUUUGACCAUCAGGUUUUAGAGCUAGAAAUAGCAAGUUAAAAUAAGGCUAGUCCGUUAUCAACUUGAAAAAGUGGCACCGAGUCGGUGCUUUU
modifications: sugars from the 5' end m3 r25 m12 r28 m32, backbone not given here; further chemistry not fully specified
B4: G000489: TTR sgRNA modified sequence, Human, SEQ ID NO: 96; guide sequence of CR003344 (nucleic acid)
guide: mU*mU*mU*rGrArCrCrArUrCrArGrArGrGrArCrArCrUrGrUrUrUrUrArGrAmGmCmUmAmGmAmAmAmUmAmGmCrArArGrUrUrArArArArUrArArGrGrCrUrArGrUrCrCrGrUrUrArUrCrAmAmCmUmUmGmAmAmAmAmAmGmUmGmGmCmAmCmCmGmAmGmUmCmGmGmUmGmCmU*mU*mU*mU
B5: G000500: TTR sgRNA modified sequence, Human, SEQ ID NO: 107; guide sequence of CR003337 (nucleic acid)
guide: mC*mC*mA*rGrUrCrCrArGrCrArArGrGrCrArGrArGrGrGrUrUrUrUrArGrAmGmCmUmAmGmAmAmAmUmAmGmCrArArGrUrUrArArArArUrArArGrGrCrUrArGrUrCrCrGrUrUrArUrCrAmAmCmUmUmGmAmAmAmAmAmGmUmGmGmCmAmCmCmGmAmGmUmCmGmGmUmGmCmU*mU*mU*mU
B6: G000568: TTR sgRNA modified sequence, Human, SEQ ID NO: 110; guide sequence of CR003391 (nucleic acid)
guide: mG*mG*mC*rUrGrUrCrGrUrCrArCrCrArArUrCrCrCrArGrUrUrUrUrArGrAmGmCmUmAmGmAmAmAmUmAmGmCrArArGrUrUrArArArArUrArArGrGrCrUrArGrUrCrCrGrUrUrArUrCrAmAmCmUmUmGmAmAmAmAmAmGmUmGmGmCmAmCmCmGmAmGmUmCmGmGmUmGmCmU*mU*mU*mU
B7: G000572: TTR sgRNA modified sequence, Human, SEQ ID NO: 113; guide sequence of CR003385 (nucleic acid)
guide: mC*mC*mC*rCrUrArCrUrCrCrUrArUrUrCrCrArCrCrArGrUrUrUrUrArGrAmGmCmUmAmGmAmAmAmUmAmGmCrArArGrUrUrArArArArUrArArGrGrCrUrArGrUrCrCrGrUrUrArUrCrAmAmCmUmUmGmAmAmAmAmAmGmUmGmGmCmAmCmCmGmAmGmUmCmGmGmUmGmCmU*mU*mU*mU
B8: G000493: TTR sgRNA modified sequence, Human, SEQ ID NO: 100; guide sequence of CR003368 (nucleic acid)
guide: mA*mA*mG*rUrGrCrCrUrUrCrCrArGrUrArArGrArUrUrGrUrUrUrUrArGrAmGmCmUmAmGmAmAmAmUmAmGmCrArArGrUrUrArArArArUrArArGrGrCrUrArGrUrCrCrGrUrUrArUrCrAmAmCmUmUmGmAmAmAmAmAmGmUmGmGmCmAmCmCmGmAmGmUmCmGmGmUmGmCmU*mU*mU*mU

Assays:
TTR [1] = assay: TTR editing in primary human hepatocytes treated with LNP formulated Spy Cas9 mRNA (SEQ ID NO: 2) and sgRNAs, 12.5 ng mRNA; type: cell-based; conditions: LNP formulated Spy Cas9 mRNA (SEQ ID NO: 2) and sgRNA, 12.5 ng mRNA, 3.9 nM sgRNA, 72 hours
Experimental: Primary liver hepatocytes. Primary human liver hepatocytes (PHH) and primary cynomolgus liver hepatocytes (PCH) (Gibco) were cultured per the manufacturer's protocol (Invitrogen, protocol 11.28.2012). In brief, the cells were thawed and resuspended in hepatocyte thawing medium with supplements (Gibco, Cat. CM7000) followed by centrifugation at 100 g for 10 minutes for human and 80 g for 4 minutes for cyno. The supernatant was discarded and the pelleted cells resuspended in hepatocyte plating medium plus supplement pack (Invitrogen, Cat. A1217601 and CM3000). Cells were counted and plated on Bio-coat collagen I coated 96-well plates (ThermoFisher, Cat. 877272) at a density of 33,000 cells/well for human or 60,000 cells/well for cyno (or 65,000 cells/well when assaying effects on TTR protein, described further below). Plated cells were allowed to settle and adhere for 6 or 24 hours in a tissue culture incubator at 37° C. and 5% CO2 atmosphere. After incubation cells were checked for monolayer formation and media was replaced with hepatocyte culture medium with serum-free supplement pack (Invitrogen, Cat. A1217601 and CM4000).
In general, the lipid nanoparticle components were dissolved in 100% ethanol with the lipid component of various molar ratios. The RNA cargos were dissolved in 25 mM citrate, 100 mM NaCl, pH 5.0, resulting in a concentration of RNA cargo of approximately 0.45 mg/mL. The LNPs were formulated with a lipid amine to RNA phosphate (N:P) molar ratio of about 4.5 or about 6, with the ratio of mRNA to gRNA at 1:1 by weight.
The LNPs were formed by microfluidic mixing of the lipid and RNA solutions using a Precision Nanosystems NanoAssemblr™ Benchtop Instrument, according to the manufacturer's protocol. A 2:1 ratio of aqueous to organic solvent was maintained during mixing using differential flow rates. After mixing, the LNPs were collected, diluted in water (approximately 1:1 v/v), held for 1 hour at room temperature, and further diluted with water (approximately 1:1 v/v) before final buffer exchange. The final buffer exchange into 50 mM Tris, 45 mM NaCl, 5% (w/v) sucrose, pH 7.5 (TSS) was completed with PD-10 desalting columns (GE). If required, formulations were concentrated by centrifugation with Amicon 100 kDa centrifugal filters (Millipore). The resulting mixture was then filtered using a 0.2 μm sterile filter. The final LNP was stored at −80° C. until further use.
Additional PCR was performed per the manufacturer's protocols (Illumina) to add chemistry for sequencing. The amplicons were sequenced on an Illumina MiSeq instrument. The reads were aligned to a reference genome (e.g., the human reference genome (hg38), the cynomologus reference genome (mf5), the rat reference genome (rn6), or the mouse reference genome (mm10)) after eliminating those having low quality scores. The resulting files containing the reads were mapped to the reference genome (BAM files), where reads that overlapped the target region of interest were selected and the number of wild type reads versus the number of reads which contain an insertion, substitution, or deletion was calculated.
The editing percentage (e.g., the “editing efficiency” or “percent editing” or “indel frequency”) is defined as the total number of sequence reads with insertions/deletions (“indels”) or substitutions over the total number of sequence reads, including wild type.
Lipid nanoparticle formulations of modified sgRNAs targeting human TTR and the cyno matched sgRNA sequences were tested on primary human hepatocytes and primary cyno hepatocytes in a dose response curve. Primary human and cyno hepatocytes were plated as described in Example 1. Both cell lines were incubated at 37° C., 5% CO2 for 24 hours prior to treatment with LNPs. The LNPs used in the experiments detailed in Tables 18-21 were prepared using the Nanoassemblr™ procedure, each containing the specified sgRNA and Cas9 mRNA (SEQ ID NO:2), each having Lipid. […]

[2] = system: potential off-target genomic sites; assay: Off-target analysis by oligo insertion based assay in primary human hepatocytes (sgRNAs); type: cell-based; conditions: 100 ng Cas9 mRNA, 25 nM sgRNA, 12.5 nM donor oligo, 48 h
TTR [3] = assay: TTR editing dose response (EC50, maximum editing) in primary cyno hepatocytes treated with LNP formulated U-depleted Spy Cas9 mRNA and sgRNAs; type: cell-based, cynomolgus monkey; conditions: LNP formulated U-depleted Spy Cas9 mRNA and human specific sgRNAs
Procedure, shortened: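 Primary cyno hepatocytes, 24 h after plating, treated with LNPs (Cas9 mRNA plus sgRNA) preincubated 5 min in medium with 6% cyno serum; 8-point 3-fold doses from 300 ng mRNA. Lysed at 72 h; indel/substitution percentage by amplicon NGS, giving EC50 and maximum editing.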

Molecule | 12.5 ng mRNA, 3.9 nM sgRNA, Avg % Edit (TTR [1]) [%] | # Sites in PHH (off-target integration sites detected) [2] | Max Editing (TTR [3]) [%]
B1 | 10.53 | 0 | 90.76
B2 | 48.95 | 0 | 97.06
B3 | 24.37 | 0 | 95.07
B4 | 16.85 | 2 | 89.21
B5 | 23.57 | 12 | 58.04
B6 | 54.60 | 11 | 87.93
B7 | 55.45 | 2 | 100.31
B8 | 7.33 | 1 | 61.15
